Test results as given in article doi:10.1101/2022.03.31.486524.

Tests used:
[1] = molecular target: CelTOS N-terminal truncation mutant (Gly51-Asp196) (Plasmodium vivax); test: SEC
[2] = molecular target: CelTOS double mutant Lys122Asp, Leu164Asp (Plasmodium vivax); test: SEC
[3] = molecular target: Disulfide-locked CelTOS dimer (Ser55Cys, Ala123Cys) (Plasmodium vivax); test: cross-linking

Work on “CelTOS N-terminal truncation mutant (Gly51-Asp196) (domain or fragment)” yielded a stoichiometry N [1] of 2.

Work on “CelTOS double mutant Lys122Asp, Leu164Asp (natural protein)” yielded a stoichiometry N [2] of 2.

Substance “Disulfide-locked CelTOS dimer (Ser55Cys, Ala123Cys) (natural protein)” has a precursor abundance of cross-linked species [3] of 70% and a stoichiometry N [3] of 2.
